According to the RNAGym collection of RNA variant scans (doi:10.7554/elife.90254):

B1: LINE1-full (parent)
chain: UACGUAGGUGGUUUUCCCCUGAUAGUGCUAAGGGGGCCUGGAAGUUUGGACUGGGCAGAGCUCAACACAGCGUGGCAAAGUGGCUGUGGCUAGACUGCCUCUCUGGAUUCCUCGUCACUCAGCAGGGCAUCUCUGAGAGAAAUGCC

Variants of: B1
Test: self-cleavage, relative activity (ratio to wild type); higher = more cleavage; in vitro, sequencing; the parent is a self-cleaving ribozyme

Variant | self-cleavage
G35C U47C | 1.84
U39A A57U | 0.12
U39A A57G | 0.87
C37G A67U | 0.12
G33U A79G | 1.51
G33U G114A | 1.36
G35A G125U | 1.03
G35U U52A | 0.51
C37G U102C | 1.19
C37G U102A | 0.9
C38A A69G | 0.61
C37G A79G | 0.85
G36A A50U | 1.16
C37G | 1.13
C37A | 1.04
C37U | 1.23
G33C U46A | 1.45
C38U C95U | 0.21
G35A A129U | 1.62
G34U U143G | 1.01
G33U A50U | 1.14
G36A A138G | 1.53
G34C A50U | 1.81
G35U A78U | 2.1

Variant | self-cleavage
G36C A64C | 0.35
C38U A136U | 1.08
G35A C76U | 2.14
C37G U143C | 1.38
C37G U87C | 0.2
G36A A59U | 0.67
C38U U39A | 1.09
C38U A69G | 0.49
G34A G144A | 1.31
G36A U102C | 1.14
G33U C101U | 1.26
G35A U104C | 1.42
C37G A138G | 0.8
G34A A141G | 1.41
C37G A65G | 0
G35A U100A | 0.31
G33U A117G | 1.39
G36A U73A | 1.84
G35A A43G | 0.71
C37U U45C | 1.02
C37A C90U | 0.04
G34U A79G | 0.55
C37A A92C | 0.2
G35A U130C | 0.96

Variant | self-cleavage
C38A A136G | 0.7
C38G U52A | 1.04
C38A U115C | 1.14
G33U A69G | 0.69
C37U C113U | 0.42
C37A U47A | 1.12
C37U U39C | 1.26
C37U U39A | 1.12
G34U A65G | 0.02
G34U A64G | 0.36
G33U A67U | 0.17
G35A A92G | 0.02
G36C U52A | 0.45
C37A A142G | 1.24
C38U U62C | 0
C38U U62A | 0.02
C37U A140G | 0.26
C37U A140U | 1.14
G35C U134A | 0.71
C38U U130C | 1.46
G36U U143C | 1.16
G36C U104C | 1.87
C37U A107G | 1.07
G33U C116U | 1.17

Variant | self-cleavage
G34A A142G | 1.45
C38A A121U | 1.42
G36C U81C | 0.9
G34A C103U | 1.7
G36A U81A | 2.04
G36A U81G | 1.08
G34A U46C | 1.27
C37G U119C | 1.46
C37U A136U | 1.49
G35C A59G | 0.19
C37U U109A | 1.24
G34A A67G | 0.35
G35A U73C | 1.19
G35C U132C | 1.53
G34U C116U | 1.46
G36U U108C | 1.62
C37A U96C | 0.08
C37U C56U | 0.11
G35A U115C | 1.03
G35A U115A | 1.17
G36U U73A | 0.46
G34C A107G | 1.12
C37G U45A | 0.85
C38A U143G | 1.43

Variant | self-cleavage
G35U U87C | 0.14
C38U G60A | 0.05
C37U U91C | 0.27
G33C U62C | 0.1
C37G G60A | 0.06
G34A U108G | 1.55
G34A U108C | 1.16
G35U G75C | 0.77
C38U U134C | 1.14
G33U U143C | 0.61
C38A U130C | 1.41
G36U U134C | 1.99
C37A C95A | 0.01
C37G A94G | 0.32
G34C A141G | 1.66
G34A A138G | 1.68
G35A U87A | 0.08
G34A U45C | 0.87
G34A U115A | 1.08
G34A U115C | 2.03
C37G U130G | 0.68
G34A A43G | 0.73
G34A A43C | 1.23
G33U A142G | 0.88

Variant | self-cleavage
C37U A43G | 1.32
G34A A42G | 0.35
G33U U47C | 1.73
G35A U62C | 0.03
G35A U62A | 0.05
G33U C103U | 1.15
G34C U39C | 1.65
G36A A140G | 1.3
G35A C95A | 0.07
C38U G41U | 1.21
C38A A141U | 1.49
G34U A43U | 0.97
G34U A43G | 1.06
C37G A59U | 0.84
C37G A59G | 0.07
G34A A64G | 0.12
C37G A142G | 1.25
G34U A129G | 1.98
G36A C116U | 1.41
C37G U62C | 0.12
G35A A141G | 1.39
G36C U87C | 0.25
G34U U91C | 0.51
G34U U91A | 0.49

Variant | self-cleavage
G35A U134C | 0.92
G35A U134G | 0.47
G36U A94G | 0.12
G35U A94G | 0.19
C38U U47C | 0.93
G33U A57G | 0.64
G34A A77G | 1.88
C37U U112A | 1.07
C37U G88A | 0.04
G35A A138G | 1.22
G36C U143A | 0.7
G36A A94G | 0.34
G36U U52A | 0.64
G33U G75A | 0.78
C38U U45C | 1.39
G34U A141G | 1.56
G35C U85C | 0.22
C37G U112C | 0.28
G34A A140G | 0.5
G34A C120U | 1.64
C37U U115C | 1.67
G34A U52C | 1.1
G34A U52A | 1.7
